This assay deals with LCMV glycoprotein GP33-41 epitope presented by the histocompatibility molecules H-2D^b (LCMV virus; mouse (C57BL/6)) (UniProt P09991). As to the kind of experiment: cell-based or functional assay.

In the case of “T receptor (TCR Vα2 Vβ8) specific for the GP33-41 epitope, on CD8 T lymphocytes of TCR-transgenic C57BL/6 mice”, the % CD44^hi effector - memory, of CD8+ TCR Vα2 T cells, 7 days after injection of H293-341-LCMV.GP particle supernatant (control H293-341: 37.6) was 63.9% and the CD44^lo (naïve), percent of CD8+ TCR Vα2 T cells, 7 days after injection of H293-341-LCMV.GP particle supernatant (control H293-341: 57.6) came to 24.5%.
